For data set [1], the target named is mLANA_(140–314) (murine gammaherpesvirus 68 (MHV-68)). Put plainly: SEC; purified mLANA DBD truncations analysed by size exclusion chromatography; oligomeric state from the elution volume. Background: Size exclusion chromatography separates by hydrodynamic size, large species first.
In data set [2] the target is mLANA_(140–272), C-terminal DNA-binding domain of murine gammaherpesvirus 68 latency-associated nuclear antigen (murine gammaherpesvirus 68 (MHV-68)). The description is as above.
Data set [3] deals with mLANA124-272 WT (Murine gammaherpesvirus 68 (MHV-68, MuHV-4)). Put plainly: SPR. As to conditions: 5' biotin with TTTTT spacer; EMSA: 20 mM Tris-HCl pH 7.5, 50 mM KCl, 10 mM MgCl2, 1 mM EDTA, 20 ug/mL poly(dI-dC), 0.1 mM DTT, 10% glycerol, RT; ITC: 25 mM Na/K phosphate pH 7.0, 150 mM …. In general terms: A gel shift assay detects complexes by their altered migration in electrophoresis.

Data set [4] concerns mLANA124-314 WT (Murine gammaherpesvirus 68 (MHV-68, MuHV-4)). Put plainly: ITC. Particulars: EMSA: 20 mM Tris-HCl pH 7.5, 50 mM KCl, 10 mM MgCl2, 1 mM EDTA, 20 ug/mL poly(dI-dC), 0.1 mM DTT, 10% glycerol, RT; ITC: 25 mM Na/K phosphate pH 7.0, 150 mM ….

For mLANA_(140–314) (domain or fragment), the stoichiometry N in data set [1] was 4.
As to “mLANA_(140–272), C-terminal DNA-binding domain of murine gammaherpesvirus 68 latency-associated nuclear antigen (domain or fragment)”, the stoichiometry N in data set [2] was determined as 2.
In turn, mLBS1 SPR ligand (biotin-TTTTT-mLBS1) gave a Kd in data set [3] of 169 nM.
mLBS1 for ITC and SEC (no spacer) showed a dissociation constant Kd in data set [4] of 66 nM.

As usually defined, the stoichiometry N is the number of molecules, sites or subunits per partner or assembly. Broadly, the Kd is the free concentration of one partner at which half of the binding sites on the other are occupied at equilibrium, for simple one-to-one binding. A lower Kd goes with higher affinity.

The record behind these values is article PMC3798461.
